Results taken from PMC10778704, “Comparative Analysis of Cyclization Techniques in Stapled Peptides: Structural Insights into Protein–Protein Interactions in a SARS-CoV-2 Spike RBD/hACE2 Model System” (International Journal of Molecular Sciences, 2023).
Bridge positions count the residues as written; N and C are the ends. Square brackets hold non-standard residues; d marks the D form. Peptide text beside a SMILES is read from it. S5 = C=CCCC[C@](C)(N)C(=O)O

Assays:
circular dichroism = conditions: 10 mM Na phosphate; pH 7.4; 25 °C; 100 uM
[1] = 37 °C, comparison in words
in vitro = conditions: rat, plasma

Row | Compound | helicity (circular dichroism) [%] | Degradation / stability in rat plasma over 24 h [1] | half-life (in vitro) [h]
1 | CC(=O)N[C@@H](CC(=O)O)C(=O)N[C@@H](CCCCN)C(=O)N[C@H]1Cn2cc(nn2)CCc2cn(nn2)C[C@@H](C(=O)N[C@@H](CCC(=O)O)C(=O)N[C@@H](CC(=O)O)C(N)=O)NC(=O)[C@H](CCC(=O)O)NC(=O)[C@H](Cc2c[nH]cn2)NC(=O)[C@H](CC(N)=O)NC1=O | 8.2 |  | 
2 | CC(=O)N1CCC[C@H]1C(=O)N[C@@H](CC(=O)O)C(=O)N[C@@H](CCCCN)C(=O)N[C@H]1CCCCNC(=O)C[C@@H](C(=O)N[C@@H](CCC(=O)O)C(=O)N[C@@H](CC(=O)O)C(N)=O)NC(=O)[C@H](CCC(=O)O)NC(=O)[C@H](Cc2c[nH]cn2)NC(=O)[C@H](CC(N)=O)NC1=O (Ac-PDKKNHEDED-NH2; lactam 4-8) | 89.7 |  | 
3 | CC(=O)N[C@@H](Cc1c[nH]cn1)C(=O)N[C@@H](CCC(=O)O)C(=O)N[C@H]1CCCCNC(=O)CC[C@@H](C(=O)N[C@@H](Cc2ccc(O)cc2)C(=O)N[C@@H](CCC(N)=O)C(N)=O)NC(=O)[C@H](CC(C)C)NC(=O)[C@H](CC(=O)O)NC(=O)[C@H](CCC(=O)O)NC1=O (Ac-HEKEDLEYQ-NH2; lactam 3-7) | 4.6 |  | 
4 | CC(=O)N[C@@H](CC(=O)O)C(=O)N[C@@H](CCCCN)C(=O)N[C@H]1CCCCNC(=O)C[C@@H](C(=O)N[C@@H](CCC(=O)O)C(=O)N[C@@H](CC(=O)O)C(=O)N[C@H]2CCCCNC(=O)C[C@@H](C(N)=O)NC(=O)[C@H](CCC(N)=O)NC(=O)[C@H](Cc3ccc(O)cc3)NC(=O)[C@H](Cc3ccccc3)NC2=O)NC(=O)[C@H](CCC(=O)O)NC(=O)[C@H](Cc2c[nH]cn2)NC(=O)[C@H](CC(N)=O)NC1=O (Ac-DKKNHEDEDKFYQD-NH2; lactam 3-7, 10-14) | 25.2 |  | 
5 | CC(=O)N[C@@H](CC(=O)O)C(=O)N[C@@H](CCCCN)C(=O)N[C@@H]1Cc2cn(nn2)CCCC[C@@H](C(=O)N[C@@H](CCC(=O)O)C(=O)N[C@@H](CC(=O)O)C(N)=O)NC(=O)[C@H](CCC(=O)O)NC(=O)[C@H](Cc2c[nH]cn2)NC(=O)[C@H](CC(N)=O)NC1=O | 5.2 |  | 
6 | CC(=O)N[C@@H](Cc1c[nH]cn1)C(=O)N[C@@H](CCC(=O)O)C(=O)N[C@@H]1Cc2cn(nn2)CCCC[C@@H](C(=O)N[C@@H](Cc2ccc(O)cc2)C(=O)N[C@@H](CCC(N)=O)C(N)=O)NC(=O)[C@H](CC(C)C)NC(=O)[C@H](CC(=O)O)NC(=O)[C@H](CCC(=O)O)NC1=O | 25.7 |  | 
7 | Ac-HEAEDLFYQ-NH2 [peptide 2] |  | levels of degradation similar to those of 8-amino acid-long AngII | 
8 | CC(=O)N[C@@H](CC(=O)O)C(=O)N[C@@H](CCCCN)C(=O)N[C@H]1CCCCNC(=O)C[C@@H](C(=O)N[C@@H](CCC(=O)O)C(=O)N[C@@H](CC(=O)O)C(N)=O)NC(=O)[C@H](CCC(=O)O)NC(=O)[C@H](Cc2c[nH]cn2)NC(=O)[C@H](CC(N)=O)NC1=O [compound 3] (Ac-DKKNHEDED-NH2; lactam 3-7) | 49.9 |  | 2.9
9 | CC(=O)N[C@@H](CC(=O)O)C(=O)N[C@@H](CCCCN)C(=O)N[C@H]1CSCc2ccc(cc2)CSC[C@@H](C(=O)N[C@@H](CCC(=O)O)C(=O)N[C@@H](CC(=O)O)C(N)=O)NC(=O)[C@H](CCC(=O)O)NC(=O)[C@H](Cc2c[nH]cn2)NC(=O)[C@H](CC(N)=O)NC1=O | 5 |  | 
10 | C=CCCC[C@](C)(NC(=O)[C@H](CC(C)C)NC(=O)[C@H](CC(=O)O)NC(=O)[C@H](CCC(=O)O)NC(=O)[C@](C)(CCCC=C)NC(=O)[C@H](CCC(=O)O)NC(=O)[C@H](Cc1c[nH]cn1)NC(C)=O)C(=O)N[C@@H](Cc1ccc(O)cc1)C(=O)N[C@@H](CCC(N)=O)C(N)=O (Ac-HE[S5]EDL[S5]YQ-NH2) | 11 |  | 
11 | CC(=O)N[C@@H](Cc1c[nH]cn1)C(=O)N[C@@H](CCC(=O)O)C(=O)N[C@H]1CC(=O)NCCCC[C@@H](C(=O)N[C@@H](Cc2ccc(O)cc2)C(=O)N[C@@H](CCC(N)=O)C(N)=O)NC(=O)[C@H](CC(C)C)NC(=O)[C@H](CC(=O)O)NC(=O)[C@H](CCC(=O)O)NC1=O (Ac-HEDEDLKYQ-NH2; lactam 3-7) | 35.1 |  | 
12 | CC(=O)N[C@@H](CC(=O)O)C(=O)N[C@@H](CCCCN)C(=O)N[C@@]1(C)CCC/C=C\CCC[C@@](C)(C(=O)N[C@@H](CCC(=O)O)C(=O)N[C@@H](CC(=O)O)C(N)=O)NC(=O)[C@H](CCC(=O)O)NC(=O)[C@H](Cc2c[nH]cn2)NC(=O)[C@H](CC(N)=O)NC1=O [peptide 10] (Ac-DK[S5]NHE[S5]ED-NH2; staple (Z) 3-7) | 68.9 |  | 4
13 | CC(=O)N[C@@H](Cc1c[nH]cn1)C(=O)N[C@@H](CCC(=O)O)C(=O)N[C@@]1(C)CCC/C=C/CCC[C@@](C)(C(=O)N[C@@H](Cc2ccc(O)cc2)C(=O)N[C@@H](CCC(N)=O)C(N)=O)NC(=O)[C@H](CC(C)C)NC(=O)[C@H](CC(=O)O)NC(=O)[C@H](CCC(=O)O)NC1=O [peptide 11, Ac-NH-His-Glu-[S5-Glu-Asp-Leu-S5]-Tyr-Gln-CO-NH2] (Ac-HE[S5]EDL[S5]YQ-NH2; staple (E) 3-7) | 53.5 | significantly more stable | 6.8
14 | CC(=O)N[C@@H](Cc1c[nH]cn1)C(=O)N[C@@H](CCC(=O)O)C(=O)N[C@H]1Cn2cc(nn2)CCc2cn(nn2)C[C@@H](C(=O)N[C@@H](Cc2ccc(O)cc2)C(=O)N[C@@H](CCC(N)=O)C(N)=O)NC(=O)[C@H](CC(C)C)NC(=O)[C@H](CC(=O)O)NC(=O)[C@H](CCC(=O)O)NC1=O | 50.7 |  | 
15 | CC(=O)N1CCC[C@H]1C(=O)N[C@@H](Cc1c[nH]cn1)C(=O)N[C@@H](CCC(=O)O)C(=O)N[C@H]1CCCCNC(=O)C[C@@H](C(=O)N[C@@H](Cc2ccc(O)cc2)C(=O)N[C@@H](CCC(N)=O)C(N)=O)NC(=O)[C@H](CC(C)C)NC(=O)[C@H](CC(=O)O)NC(=O)[C@H](CCC(=O)O)NC1=O (Ac-PHEKEDLDYQ-NH2; lactam 4-8) | 56.7 |  | 
16 | CC(=O)N[C@@H](CC(=O)O)C(=O)N[C@@H](CCCCN)C(=O)N[C@@]1(C)CCC/C=C/CCC[C@@](C)(C(=O)N[C@@H](CCC(=O)O)C(=O)N[C@@H](CC(=O)O)C(N)=O)NC(=O)[C@H](CCC(=O)O)NC(=O)[C@H](Cc2c[nH]cn2)NC(=O)[C@H](CC(N)=O)NC1=O (Ac-DK[S5]NHE[S5]ED-NH2; staple (E) 3-7) | 4.7 |  | 
17 | CC(=O)N[C@@H](Cc1c[nH]cn1)C(=O)N[C@@H](CCC(=O)O)C(=O)N[C@H]1CCCCn2cc(nn2)C[C@H](C(=O)N[C@@H](Cc2ccc(O)cc2)C(=O)N[C@@H](CCC(N)=O)C(N)=O)NC(=O)[C@H](CC(C)C)NC(=O)[C@H](CC(=O)O)NC(=O)[C@H](CCC(=O)O)NC1=O | 18.1 |  | 
18 | Ac-DKFNHEAED-NH2 [peptide 1] |  | levels of degradation similar to those of 8-amino acid-long AngII | 
19 | CC(=O)N[C@@H](CC(=O)O)C(=O)N[C@@H](CCCCN)C(=O)N[C@H]1CC(=O)NCCCC[C@@H](C(=O)N[C@@H](CCC(=O)O)C(=O)N[C@@H](CC(=O)O)C(N)=O)NC(=O)[C@H](CCC(=O)O)NC(=O)[C@H](Cc2c[nH]cn2)NC(=O)[C@H](CC(N)=O)NC1=O (Ac-DKDNHEKED-NH2; lactam 3-7) | 37.2 |  | 
